Results on one molecule are retold here after PMC5758917 (Nucleic Acids Research, 2017).

This assay concerns the target T1, GST-E1 (HPV 11 E1 fused to GST) (human papillomavirus type 11, UniProt P04014 1-649).
T1 sequence: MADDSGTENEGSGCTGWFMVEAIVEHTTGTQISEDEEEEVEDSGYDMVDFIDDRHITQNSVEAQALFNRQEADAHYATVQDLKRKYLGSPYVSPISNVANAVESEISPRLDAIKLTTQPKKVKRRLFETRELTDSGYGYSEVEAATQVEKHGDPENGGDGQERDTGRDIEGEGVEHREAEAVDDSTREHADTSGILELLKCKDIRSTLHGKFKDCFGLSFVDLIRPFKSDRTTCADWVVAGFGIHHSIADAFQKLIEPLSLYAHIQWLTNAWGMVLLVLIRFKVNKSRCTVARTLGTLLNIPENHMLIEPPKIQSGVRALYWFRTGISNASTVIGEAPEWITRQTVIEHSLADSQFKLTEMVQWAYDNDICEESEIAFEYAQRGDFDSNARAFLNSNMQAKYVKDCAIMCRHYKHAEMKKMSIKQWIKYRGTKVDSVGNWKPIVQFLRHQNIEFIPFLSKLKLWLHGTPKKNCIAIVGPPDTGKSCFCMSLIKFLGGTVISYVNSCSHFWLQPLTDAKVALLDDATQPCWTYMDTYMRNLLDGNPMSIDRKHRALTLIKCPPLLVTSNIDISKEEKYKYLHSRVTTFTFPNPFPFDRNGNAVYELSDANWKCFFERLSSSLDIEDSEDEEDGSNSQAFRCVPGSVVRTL
In words: far-Western, overlay or dot blot.

B1: p50 subunit of pol δ (natural protein)
chain: not shown
With B1, the binding result is given as “binds”.
